Assay results published in patent US20060251655A1.

B1: W688stop (C-terminal deletion variant of ADAMTS-13, FLAG appended) (protein)
chain: PSHFQQSCLQALEPQAVSSYLSPGAPLKGRPPSPGFQRQRQRQRRAAGGILHLELLVAVGPDVFQAHQEDTERYVLTNLNIGAELLRDPSLGAQFRVHLVKMVILTEPEGAPNITANLTSSLLSVCGWSQTINPEDDTDPGHADLVLYITRFDLELPDGNRQVRGVTQLGGACSPTWSCLITEDTGFDLGVTIAHEIGHSFGLEHDGAPGSGCGPSGHVMASDGAAPRAGLAWSPCSRRQLLSLLSAGRARCVWDPPRPQPGSAGHPPDAQPGLYYSANEQCRVAFGPKAVACTFAREHLDMCQALSCHTDPLDQSSCSRLLVPLLDGTECGVEKWCSKGRCRSLVELTPIAAVHGRWSSWGPRSPCSRSCGGGVVTRRRQCNNPRPAFGGRACVGADLQAEMCNTQACEKTQLEFMSQQCARTDGQPLRSSPGGASFYHWGAAVPHSQGDALCRHMCRAIGESFIMKRGDSFLDGTRCMPSGPREDGTLSLCVSGSCRTFGCDGRMDSQQVWDRCQVCGGDNSTCSPRKGSFTAGRAREYVTFLTVTPNLTSVYIANHRPLFTHLAVRIGGRYVVAGKMSISPNTTYPSLLEDGRVEYRVALTEDRLPRLEEIRIWGPLQEDADIQVYRRYGEEYGNLTRPDITFTYFQPKPRQAWVWDYKDDDDK
B2: Q449stop (C-terminal deletion variant of ADAMTS-13, FLAG appended) (protein)
chain: PSHFQQSCLQALEPQAVSSYLSPGAPLKGRPPSPGFQRQRQRQRRAAGGILHLELLVAVGPDVFQAHQEDTERYVLTNLNIGAELLRDPSLGAQFRVHLVKMVILTEPEGAPNITANLTSSLLSVCGWSQTINPEDDTDPGHADLVLYITRFDLELPDGNRQVRGVTQLGGACSPTWSCLITEDTGFDLGVTIAHEIGHSFGLEHDGAPGSGCGPSGHVMASDGAAPRAGLAWSPCSRRQLLSLLSAGRARCVWDPPRPQPGSAGHPPDAQPGLYYSANEQCRVAFGPKAVACTFAREHLDMCQALSCHTDPLDQSSCSRLLVPLLDGTECGVEKWCSKGRCRSLVELTPIAAVHGRWSSWGPRSPCSRSCGGGVVTRRRQCNNPRPAFGGRACVGADLQAEMCNTQACEKTQLEFMSQQDYKDDDDK
B3: recombinant ADAMTS-13 (von Willebrand factor specific cleaving enzyme), expressed in human embryo kidney cell line 293 (protein)
chain: AAGGILHLELLVAVGPDVFQAHQEDTERYVLTNLNIGAELLRDPSLGAQFRVHLVKMVILTEPEGAPNITANLTSSLLSVCGWSQTINPEDDTDPGHADLVLYITRFDLELPDGNRQVRGVTQLGGACSPTWSCLITEDTGFDLGVTIAHEIGHSFGLEHDGAPGSGCGPSGHVMASDGAAPRAGLAWSPCSRRQLLSLLSAGRARCVWDPPRPQPGSAGHPPDAQPGLYYSANEQCRVAFGPKAVACTFAREHLDMCQALSCHTDPLDQSSCSRLLVPLLDGTECGVEKWCSKGRCRSLVELTPIAAVHGRWSSWGPRSPCSRSCGGGVVTRRRQCNNPRPAFGGRACVGADLQAEMCNTQACEKTQLEFMSQQCARTDGQPLRSSPGGASFYHWGAAVPHSQGDALCRHMCRAIGESFIMKRGDSFLDGTRCMPSGPREDGTLSLCVSGSCRTFGCDGRMDSQQVWDRCQVCGGDNSTCSPRKGSFTAGRAREYVTFLTVTPNLTSVYIANHRPLFTHLAVRIGGRYVVAGKMSISPNTTYPSLLEDGRVEYRVALTEDRLPRLEEIRIWGPLQEDADIQVYRRYGEEYGNLTRPDITFTYFQPKPRQAWVWAAVRGPCSVSCGAGLRWVNYSCLDQARKELVETVQCQGSQQPPAWPEACVLEPCPPYWAVGDFGPCSASCGGGLRERPVRCVEAQGSLLKTLPPARCRAGAQQPAVALETCNPQPCPARWEVSEPSSCTSAGGAGLALENETCVPGADGLEAPVTEGPGSVDEKLPAPEPCVGMSCPPGWGHLDATSAGEKAPSPWGSIRTGAQAAHVWTPAAGSCSVSCGRGLMELRFLCMDSALRVPVQEELCGLASKPGSRREVCQAVPCPARWQYKLAACSVSCGRGVVRRILYCARAHGEDDGEEILLDTQCQGLPRPEPQEACSLEPCPPRWKVMSLGPCSASCGLGTARRSVACVQLDQGQDVEVDEAACAALVRPEASVPCLIADCTYRWHVGTWMECSVSCGDGIQRRRDTCLGPQAQAPVPADFCQHLPKPVTVRGCWAGPCVGQGTPSLVPHEEAAAPGRTTATPAGASLEWSQARGLLFSPAPQPRRLLPGPQENSVQSSACGRQHLEPTGTIDMRGPGQADCAVAIGRPLGEVVTLRVLESSLNCSAGDMLLLWGRLTWRKMCRKLLDMTFSSKTNTLVVRQRCGRPGGGVLLRYGSQLAPETFYRECDMQLFGPWGEIVSPSLSPATSNAGGCRLFINVAPHARIAIHALATNMGAGTEGANASYILIRDTHSLRTTAFHGQQVLYWESESSQAEMEFSEGFLKAQASLRGQYWTLQSWVPEMQDPQSWKGKEGT
B4: Full 1427stop (FLAG tagged ADAMTS-13 wild type) (protein)
chain: PSHFQQSCLQALEPQAVSSYLSPGAPLKGRPPSPGFQRQRQRQRRAAGGILHLELLVAVGPDVFQAHQEDTERYVLTNLNIGAELLRDPSLGAQFRVHLVKMVILTEPEGAPNITANLTSSLLSVCGWSQTINPEDDTDPGHADLVLYITRFDLELPDGNRQVRGVTQLGGACSPTWSCLITEDTGFDLGVTIAHEIGHSFGLEHDGAPGSGCGPSGHVMASDGAAPRAGLAWSPCSRRQLLSLLSAGRARCVWDPPRPQPGSAGHPPDAQPGLYYSANEQCRVAFGPKAVACTFAREHLDMCQALSCHTDPLDQSSCSRLLVPLLDGTECGVEKWCSKGRCRSLVELTPIAAVHGRWSSWGPRSPCSRSCGGGVVTRRRQCNNPRPAFGGRACVGADLQAEMCNTQACEKTQLEFMSQQCARTDGQPLRSSPGGASFYHWGAAVPHSQGDALCRHMCRAIGESFIMKRGDSFLDGTRCMPSGPREDGTLSLCVSGSCRTFGCDGRMDSQQVWDRCQVCGGDNSTCSPRKGSFTAGRAREYVTFLTVTPNLTSVYIANHRPLFTHLAVRIGGRYVVAGKMSISPNTTYPSLLEDGRVEYRVALTEDRLPRLEEIRIWGPLQEDADIQVYRRYGEEYGNLTRPDITFTYFQPKPRQAWVWAAVRGPCSVSCGAGLRWVNYSCLDQARKELVETVQCQGSQQPPAWPEACVLEPCPPYWAVGDFGPCSASCGGGLRERPVRCVEAQGSLLKTLPPARCRAGAQQPAVALETCNPQPCPARWEVSEPSSCTSAGGAGLALENETCVPGADGLEAPVTEGPGSVDEKLPAPEPCVGMSCPPGWGHLDATSAGEKAPSPWGSIRTGAQAAHVWTPAAGSCSVSCGRGLMELRFLCMDSALRVPVQEELCGLASKPGSRREVCQAVPCPARWQYKLAACSVSCGRGVVRRILYCARAHGEDDGEEILLDTQCQGLPRPEPQEACSLEPCPPRWKVMSLGPCSASCGLGTARRSVACVQLDQGQDVEVDEAACAALVRPEASVPCLIADCTYRWHVGTWMECSVSCGDGIQRRRDTCLGPQAQAPVPADFCQHLPKPVTVRGCWAGPCVGQGTPSLVPHEEAAAPGRTTATPAGASLEWSQARGLLFSPAPQPRRLLPGPQENSVQSSACGRQHLEPTGTIDMRGPGQADCAVAIGRPLGEVVTLRVLESSLNCSAGDMLLLWGRLTWRKMCRKLLDMTFSSKTNTLVVRQRCGRPGGGVLLRYGSQLAPETFYRECDMQLFGPWGEIVSPSLSPATSNAGGCRLFINVAPHARIAIHALATNMGAGTEGANASYILIRDTHSLRTTAFHGQQVLYWESESSQAEMEFSEGFLKAQASLRGQYWTLQSWVPEMQDPQSWKGKEGTDYKDDDDK
B5: T1135stop (C-terminal deletion variant of ADAMTS-13, FLAG appended) (protein)
chain: PSHFQQSCLQALEPQAVSSYLSPGAPLKGRPPSPGFQRQRQRQRRAAGGILHLELLVAVGPDVFQAHQEDTERYVLTNLNIGAELLRDPSLGAQFRVHLVKMVILTEPEGAPNITANLTSSLLSVCGWSQTINPEDDTDPGHADLVLYITRFDLELPDGNRQVRGVTQLGGACSPTWSCLITEDTGFDLGVTIAHEIGHSFGLEHDGAPGSGCGPSGHVMASDGAAPRAGLAWSPCSRRQLLSLLSAGRARCVWDPPRPQPGSAGHPPDAQPGLYYSANEQCRVAFGPKAVACTFAREHLDMCQALSCHTDPLDQSSCSRLLVPLLDGTECGVEKWCSKGRCRSLVELTPIAAVHGRWSSWGPRSPCSRSCGGGVVTRRRQCNNPRPAFGGRACVGADLQAEMCNTQACEKTQLEFMSQQCARTDGQPLRSSPGGASFYHWGAAVPHSQGDALCRHMCRAIGESFIMKRGDSFLDGTRCMPSGPREDGTLSLCVSGSCRTFGCDGRMDSQQVWDRCQVCGGDNSTCSPRKGSFTAGRAREYVTFLTVTPNLTSVYIANHRPLFTHLAVRIGGRYVVAGKMSISPNTTYPSLLEDGRVEYRVALTEDRLPRLEEIRIWGPLQEDADIQVYRRYGEEYGNLTRPDITFTYFQPKPRQAWVWAAVRGPCSVSCGAGLRWVNYSCLDQARKELVETVQCQGSQQPPAWPEACVLEPCPPYWAVGDFGPCSASCGGGLRERPVRCVEAQGSLLKTLPPARCRAGAQQPAVALETCNPQPCPARWEVSEPSSCTSAGGAGLALENETCVPGADGLEAPVTEGPGSVDEKLPAPEPCVGMSCPPGWGHLDATSAGEKAPSPWGSIRTGAQAAHVWTPAAGSCSVSCGRGLMELRFLCMDSALRVPVQEELCGLASKPGSRREVCQAVPCPARWQYKLAACSVSCGRGVVRRILYCARAHGEDDGEEILLDTQCQGLPRPEPQEACSLEPCPPRWKVMSLGPCSASCGLGTARRSVACVQLDQGQDVEVDEAACAALVRPEASVPCLIADCTYRWHVGTWMECSVSCGDGIQRRRDTCLGPQAQAPVPADFCQHLPKPVTVRGCWAGPCVGQGTDYKDDDDK
B6: W1016stop (C-terminal deletion variant of ADAMTS-13, FLAG appended) (protein)
chain: PSHFQQSCLQALEPQAVSSYLSPGAPLKGRPPSPGFQRQRQRQRRAAGGILHLELLVAVGPDVFQAHQEDTERYVLTNLNIGAELLRDPSLGAQFRVHLVKMVILTEPEGAPNITANLTSSLLSVCGWSQTINPEDDTDPGHADLVLYITRFDLELPDGNRQVRGVTQLGGACSPTWSCLITEDTGFDLGVTIAHEIGHSFGLEHDGAPGSGCGPSGHVMASDGAAPRAGLAWSPCSRRQLLSLLSAGRARCVWDPPRPQPGSAGHPPDAQPGLYYSANEQCRVAFGPKAVACTFAREHLDMCQALSCHTDPLDQSSCSRLLVPLLDGTECGVEKWCSKGRCRSLVELTPIAAVHGRWSSWGPRSPCSRSCGGGVVTRRRQCNNPRPAFGGRACVGADLQAEMCNTQACEKTQLEFMSQQCARTDGQPLRSSPGGASFYHWGAAVPHSQGDALCRHMCRAIGESFIMKRGDSFLDGTRCMPSGPREDGTLSLCVSGSCRTFGCDGRMDSQQVWDRCQVCGGDNSTCSPRKGSFTAGRAREYVTFLTVTPNLTSVYIANHRPLFTHLAVRIGGRYVVAGKMSISPNTTYPSLLEDGRVEYRVALTEDRLPRLEEIRIWGPLQEDADIQVYRRYGEEYGNLTRPDITFTYFQPKPRQAWVWAAVRGPCSVSCGAGLRWVNYSCLDQARKELVETVQCQGSQQPPAWPEACVLEPCPPYWAVGDFGPCSASCGGGLRERPVRCVEAQGSLLKTLPPARCRAGAQQPAVALETCNPQPCPARWEVSEPSSCTSAGGAGLALENETCVPGADGLEAPVTEGPGSVDEKLPAPEPCVGMSCPPGWGHLDATSAGEKAPSPWGSIRTGAQAAHVWTPAAGSCSVSCGRGLMELRFLCMDSALRVPVQEELCGLASKPGSRREVCQAVPCPARWQYKLAACSVSCGRGVVRRILYCARAHGEDDGEEILLDTQCQGLPRPEPQEACSLEPCPPRWDYKDDDDK

Molecular target: von Willebrand factor (vWF), prepared from plasma cryo fraction, P04275

| Protein | vWF cleaving activity (SDS-PAGE) | vWF cleaving activity |
| --- | --- | --- |
| B1 | vWF cleaving activity was clearly recognized from the full-length molecule to W688stop molecule | – |
| B2 | – | secretion into culture supernatant was observed but the enzyme activity was weak or not observed in a molecule consisting of amino acids up to the vicinity of the 449th |
| B3 | – | It was also confirmed that the vWF cleaving activity exists in the obtained purified fraction |
| B4 | vWF cleaving activity was clearly recognized from the full-length molecule to W688stop molecule | – |
| B5 | vWF cleaving activity was clearly recognized from the full-length molecule to W688stop molecule | – |
| B6 | vWF cleaving activity was clearly recognized from the full-length molecule to W688stop molecule | – |
